Here are results for 20 molecules from patent publication US20250277020A1 (Boehringer Ingelheim, published 2025).

B1: A65 (antibody, human IgG1, kappa, L234A L235A, V domains shown)
VH: EVQLVESGGGLVQPGGSLRLSCAASGFTFSDYYMAWVRQAPGKGLEWVANINYEGSRTDLLESLKSRFTISRDNAKNSVYLQMNSLRAEDTAVYYCARDTSRGSYFDVWGAGTTVTVSS
VL: VVMTQTPLSLPVSLGDQASISCRSSQSIVHYNTNTYLEWYLQKPGQSPQLLIYKVSNRFSGVPDRFSGSGSGTDFTLKISRVEAEDLGVYYCFQGSHFPLTFGQGTKLEIKR
B2: A81 (antibody, human IgG1, kappa, L234A L235A, V domains shown)
VH: EVQLVESGGGLVQPGGSLRLSCAASGFTFSDYYMAWVRQAPGKGLEWVANINYEGSRTDLLESLKSRFTISRDNAKNSVYLQMNSLRAEDTAVYYCARDTSRGSYFDVWGAGTTVTVSS
VL: VVMTQTPLSLPVSLGDQASISCRSSQSIVHYNEKTYLEWYLQKPGQSPQLLIYKVSNRFSGVPDRFSGSGSGTDFTLKISRVEAEDLGVYYCFQGSHFPLTFGQGTKLEIKR
B3: A66 (antibody, human IgG1, kappa, L234A L235A, V domains shown)
VH: EVQLVESGGGLVQPGGSLRLSCAASGFTFSDYYMAWVRQAPGKGLEWVANINYYGSRTDLLESLKSRFTISRDNAKNSVYLQMNSLRAEDTAVYYCARDTSRGSYFDVWGAGTTVTVSS
VL: VVMTQTPLSLPVSLGDQASISCRSSQSIVHYNTNTYLEWYLQKPGQSPQLLIYKVSNRFSGVPDRFSGSGSGTDFTLKISRVEAEDLGVYYCFQGSHFPLTFGQGTKLEIKR
B4: A70 (antibody, human IgG1, kappa, L234A L235A, V domains shown)
VH: EVQLVESGGGLVQPGGSLRLSCAASGFTFSDYYMAWVRQAPGKGLEWVANINYEGSRTDLLDSLKSRFTISRDNAKNSVYLQMNSLRAEDTAVYYCARDTSRGSYFDVWGAGTTVTVSS
VL: VVMTQTPLSLPVSLGDQASISCRSSQSIVHYNTNTYLEWYLQKPGQSPQLLIYKVSNRFSGVPDRFSGSGSGTDFTLKISRVEAEDLGVYYCFQGSHFPLTFGQGTKLEIKR
B5: A74 (antibody, human IgG1, kappa, L234A L235A, V domains shown)
VH: EVQLVESGGGLVQPGGSLRLSCAASGFTFSDYYMAWVRQAPGKGLEWVANINYYGSRTDLLESLKSRFTISRDNAKNSVYLQMNSLRAEDTAVYYCARDTSRGSYFDVWGAGTTVTVSS
VL: VVMTQTPLSLPVSLGDQASISCRSSQSIVHYNGKTYLEWYLQKPGQSPQLLIYKVSNRFSGVPDRFSGSGSGTDFTLKISRVEAEDLGVYYCFQGSHFPLTFGQGTKLEIKR
B6: A67 (antibody, human IgG1, kappa, L234A L235A, V domains shown)
VH: EVQLVESGGGLVQPGGSLRLSCAASGFTFSDYYMAWVRQAPGKGLEWVANINYEGSRTDLLASLKSRFTISRDNAKNSVYLQMNSLRAEDTAVYYCARDTSRGSYFDVWGAGTTVTVSS
VL: VVMTQTPLSLPVSLGDQASISCRSSQSIVHYNTNTYLEWYLQKPGQSPQLLIYKVSNRFSGVPDRFSGSGSGTDFTLKISRVEAEDLGVYYCFQGSHFPLTFGQGTKLEIKR
B7: A80 (antibody, human IgG1, kappa, L234A L235A)
light: VVMTQTPLSLPVSLGDQASISCRSSQSIVHYNGKTYLEWYLQKPGQSPQLLIYKVSNRFSGVPDRFSGSGSGTDFTLKISRVEAEDLGVYYCFQGSHFPLTFGQGTKLEIKRTVAAPSVFIFPPSDEQLKSGTASVVCLLNNFYPREAKVQWKVDNALQSGNSQESVTEQDSKDSTYSLSSTLTLSKADYEKHKVYACEVTHQGLSSPVTKSFNRGEC
heavy: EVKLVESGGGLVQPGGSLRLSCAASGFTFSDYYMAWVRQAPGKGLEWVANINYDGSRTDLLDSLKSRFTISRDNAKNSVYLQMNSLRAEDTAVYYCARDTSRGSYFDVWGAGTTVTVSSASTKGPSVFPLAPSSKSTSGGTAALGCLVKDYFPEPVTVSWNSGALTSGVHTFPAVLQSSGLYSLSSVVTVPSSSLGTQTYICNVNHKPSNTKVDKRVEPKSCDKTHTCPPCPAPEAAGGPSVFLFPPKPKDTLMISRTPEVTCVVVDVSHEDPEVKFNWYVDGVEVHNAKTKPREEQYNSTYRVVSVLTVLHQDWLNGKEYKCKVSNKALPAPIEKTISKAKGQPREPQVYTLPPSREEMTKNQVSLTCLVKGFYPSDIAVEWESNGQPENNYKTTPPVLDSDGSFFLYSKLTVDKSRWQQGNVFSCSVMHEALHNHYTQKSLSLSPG
B8: A77 (antibody, human IgG1, kappa, L234A L235A)
light: VVMTQTPLSLPVSLGDQASISCRSSQSIVHYNGKTYLEWYLQKPGQSPQLLIYKVSNRFSGVPDRFSGSGSGTDFTLKISRVEAEDLGVYYCFQGSHFPLTFGQGTKLEIKRTVAAPSVFIFPPSDEQLKSGTASVVCLLNNFYPREAKVQWKVDNALQSGNSQESVTEQDSKDSTYSLSSTLTLSKADYEKHKVYACEVTHQGLSSPVTKSFNRGEC
heavy: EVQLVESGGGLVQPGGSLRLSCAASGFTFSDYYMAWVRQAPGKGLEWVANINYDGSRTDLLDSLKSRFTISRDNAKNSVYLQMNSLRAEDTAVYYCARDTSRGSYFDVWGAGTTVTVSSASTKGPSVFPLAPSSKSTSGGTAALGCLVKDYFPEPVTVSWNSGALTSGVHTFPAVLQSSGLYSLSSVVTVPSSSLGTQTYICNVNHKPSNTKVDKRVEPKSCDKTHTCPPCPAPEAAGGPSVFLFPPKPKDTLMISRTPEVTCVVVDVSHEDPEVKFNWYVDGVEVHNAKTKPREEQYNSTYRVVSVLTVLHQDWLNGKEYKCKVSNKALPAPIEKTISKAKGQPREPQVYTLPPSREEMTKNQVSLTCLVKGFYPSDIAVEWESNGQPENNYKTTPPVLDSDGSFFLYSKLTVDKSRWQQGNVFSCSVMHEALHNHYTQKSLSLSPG
B9: A71 (antibody, human IgG1, kappa, L234A L235A, V domains shown)
VH: EVQLVESGGGLVQPGGSLRLSCAASGFTFSDYYMAWVRQAPGKGLEWVANINYDGSRTDLLESLKSRFTISRDNAKNSVYLQMNSLRAEDTAVYYCARDTSRGSYFDVWGAGTTVTVSS
VL: VVMTQTPLSLPVSLGDQASISCRSSQSIVHYNTNTYLEWYLQKPGQSPQLLIYKVSNRFSGVPDRFSGSGSGTDFTLKISRVEAEDLGVYYCFQGSHFPLTFGQGTKLEIKR
B10: A84 (antibody, human IgG1, kappa, L234A L235A, V domains shown)
VH: EVQLVESGGGLVQPGGSLRLSCAASGFTFSDYYMAWVRQAPGKGLEWVANINYYGSRTDLLASLKSRFTISRDNAKNSVYLQMNSLRAEDTAVYYCARDTSRGSYFDVWGAGTTVTVSS
VL: VVMTQTPLSLPVSLGDQASISCRSSQSIVHYNEKTYLEWYLQKPGQSPQLLIYKVSNRFSGVPDRFSGSGSGTDFTLKISRVEAEDLGVYYCFQGSHFPLTFGQGTKLEIKR
B11: A78 (antibody, human IgG1, kappa, L234A L235A, V domains shown)
VH: EVQLVESGGGLVQPGGSLRLSCAASGFTFSDYYMAWVRQAPGKGLEWVANINYEGSRTDLLDSLKSRFTISRDNAKNSVYLQMNSLRAEDTAVYYCARDTSRGSYFDVWGAGTTVTVSS
VL: VVMTQTPLSLPVSLGDQASISCRSSQSIVHYNGKTYLEWYLQKPGQSPQLLIYKVSNRFSGVPDRFSGSGSGTDFTLKISRVEAEDLGVYYCFQGSHFPLTFGQGTKLEIKR
B12: A83 (antibody, human IgG1, kappa, L234A L235A, V domains shown)
VH: EVQLVESGGGLVQPGGSLRLSCAASGFTFSDYYMAWVRQAPGKGLEWVANINYEGSRTDLLASLKSRFTISRDNAKNSVYLQMNSLRAEDTAVYYCARDTSRGSYFDVWGAGTTVTVSS
VL: VVMTQTPLSLPVSLGDQASISCRSSQSIVHYNEKTYLEWYLQKPGQSPQLLIYKVSNRFSGVPDRFSGSGSGTDFTLKISRVEAEDLGVYYCFQGSHFPLTFGQGTKLEIKR
B13: A72 (antibody, human IgG1, kappa, L234A L235A)
light: VVMTQTPLSLPVSLGDQASISCRSSQSIVHYNTNTYLEWYLQKPGQSPQLLIYKVSNRFSGVPDRFSGSGSGTDFTLKISRVEAEDLGVYYCFQGSHFPLTFGQGTKLEIKRTVAAPSVFIFPPSDEQLKSGTASVVCLLNNFYPREAKVQWKVDNALQSGNSQESVTEQDSKDSTYSLSSTLTLSKADYEKHKVYACEVTHQGLSSPVTKSFNRGEC
heavy: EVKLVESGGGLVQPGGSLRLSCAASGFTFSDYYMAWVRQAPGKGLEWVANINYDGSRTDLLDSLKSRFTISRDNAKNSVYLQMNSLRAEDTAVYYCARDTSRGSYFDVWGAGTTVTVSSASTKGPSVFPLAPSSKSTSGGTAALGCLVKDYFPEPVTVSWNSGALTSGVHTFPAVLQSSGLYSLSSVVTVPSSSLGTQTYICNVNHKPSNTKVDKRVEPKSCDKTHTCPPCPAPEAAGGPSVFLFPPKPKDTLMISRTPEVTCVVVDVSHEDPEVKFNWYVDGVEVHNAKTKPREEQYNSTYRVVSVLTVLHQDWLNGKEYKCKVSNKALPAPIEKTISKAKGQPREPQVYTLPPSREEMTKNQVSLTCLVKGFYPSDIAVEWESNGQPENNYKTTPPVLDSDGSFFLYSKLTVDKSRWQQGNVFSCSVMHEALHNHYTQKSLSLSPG
B14: A75 (antibody, human IgG1, kappa, L234A L235A, V domains shown)
VH: EVQLVESGGGLVQPGGSLRLSCAASGFTFSDYYMAWVRQAPGKGLEWVANINYEGSRTDLLASLKSRFTISRDNAKNSVYLQMNSLRAEDTAVYYCARDTSRGSYFDVWGAGTTVTVSS
VL: VVMTQTPLSLPVSLGDQASISCRSSQSIVHYNGKTYLEWYLQKPGQSPQLLIYKVSNRFSGVPDRFSGSGSGTDFTLKISRVEAEDLGVYYCFQGSHFPLTFGQGTKLEIKR
B15: A69 (antibody, human IgG1, kappa, L234A L235A)
light: VVMTQTPLSLPVSLGDQASISCRSSQSIVHYNTNTYLEWYLQKPGQSPQLLIYKVSNRFSGVPDRFSGSGSGTDFTLKISRVEAEDLGVYYCFQGSHFPLTFGQGTKLEIKRTVAAPSVFIFPPSDEQLKSGTASVVCLLNNFYPREAKVQWKVDNALQSGNSQESVTEQDSKDSTYSLSSTLTLSKADYEKHKVYACEVTHQGLSSPVTKSFNRGEC
heavy: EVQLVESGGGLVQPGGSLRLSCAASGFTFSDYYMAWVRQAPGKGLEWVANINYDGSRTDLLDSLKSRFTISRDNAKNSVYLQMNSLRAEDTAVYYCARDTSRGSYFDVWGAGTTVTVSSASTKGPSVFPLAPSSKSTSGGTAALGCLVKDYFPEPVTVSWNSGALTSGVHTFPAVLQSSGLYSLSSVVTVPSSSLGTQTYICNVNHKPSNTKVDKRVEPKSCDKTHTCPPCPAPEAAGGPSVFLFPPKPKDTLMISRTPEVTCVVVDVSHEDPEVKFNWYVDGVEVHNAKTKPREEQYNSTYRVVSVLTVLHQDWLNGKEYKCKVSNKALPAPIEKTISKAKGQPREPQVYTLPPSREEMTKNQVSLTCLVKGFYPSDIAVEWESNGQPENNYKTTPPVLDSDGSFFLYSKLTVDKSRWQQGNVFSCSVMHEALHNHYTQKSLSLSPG
B16: A68 (antibody, human IgG1, kappa, L234A L235A, V domains shown)
VH: EVQLVESGGGLVQPGGSLRLSCAASGFTFSDYYMAWVRQAPGKGLEWVANINYYGSRTDLLASLKSRFTISRDNAKNSVYLQMNSLRAEDTAVYYCARDTSRGSYFDVWGAGTTVTVSS
VL: VVMTQTPLSLPVSLGDQASISCRSSQSIVHYNTNTYLEWYLQKPGQSPQLLIYKVSNRFSGVPDRFSGSGSGTDFTLKISRVEAEDLGVYYCFQGSHFPLTFGQGTKLEIKR
B17: A73 (antibody, human IgG1, kappa, L234A L235A, V domains shown)
VH: EVQLVESGGGLVQPGGSLRLSCAASGFTFSDYYMAWVRQAPGKGLEWVANINYEGSRTDLLESLKSRFTISRDNAKNSVYLQMNSLRAEDTAVYYCARDTSRGSYFDVWGAGTTVTVSS
VL: VVMTQTPLSLPVSLGDQASISCRSSQSIVHYNGKTYLEWYLQKPGQSPQLLIYKVSNRFSGVPDRFSGSGSGTDFTLKISRVEAEDLGVYYCFQGSHFPLTFGQGTKLEIKR
B18: A76 (antibody, human IgG1, kappa, L234A L235A, V domains shown)
VH: EVQLVESGGGLVQPGGSLRLSCAASGFTFSDYYMAWVRQAPGKGLEWVANINYYGSRTDLLASLKSRFTISRDNAKNSVYLQMNSLRAEDTAVYYCARDTSRGSYFDVWGAGTTVTVSS
VL: VVMTQTPLSLPVSLGDQASISCRSSQSIVHYNGKTYLEWYLQKPGQSPQLLIYKVSNRFSGVPDRFSGSGSGTDFTLKISRVEAEDLGVYYCFQGSHFPLTFGQGTKLEIKR
B19: A79 (antibody, human IgG1, kappa, L234A L235A, V domains shown)
VH: EVQLVESGGGLVQPGGSLRLSCAASGFTFSDYYMAWVRQAPGKGLEWVANINYDGSRTDLLESLKSRFTISRDNAKNSVYLQMNSLRAEDTAVYYCARDTSRGSYFDVWGAGTTVTVSS
VL: VVMTQTPLSLPVSLGDQASISCRSSQSIVHYNGKTYLEWYLQKPGQSPQLLIYKVSNRFSGVPDRFSGSGSGTDFTLKISRVEAEDLGVYYCFQGSHFPLTFGQGTKLEIKR
B20: A82 (antibody, human IgG1, kappa, L234A L235A, V domains shown)
VH: EVQLVESGGGLVQPGGSLRLSCAASGFTFSDYYMAWVRQAPGKGLEWVANINYYGSRTDLLESLKSRFTISRDNAKNSVYLQMNSLRAEDTAVYYCARDTSRGSYFDVWGAGTTVTVSS
VL: VVMTQTPLSLPVSLGDQASISCRSSQSIVHYNEKTYLEWYLQKPGQSPQLLIYKVSNRFSGVPDRFSGSGSGTDFTLKISRVEAEDLGVYYCFQGSHFPLTFGQGTKLEIKR

For the assay, the target named is T1, Full-length human CTGF (human, UniProt P29279 27-349).
T1 construct: Corresponds to NCBI NP_001892.1 with the signal peptide omitted; purchased from R&D Systems; also called hCTGF full length; full length CTGF
T1 sequence: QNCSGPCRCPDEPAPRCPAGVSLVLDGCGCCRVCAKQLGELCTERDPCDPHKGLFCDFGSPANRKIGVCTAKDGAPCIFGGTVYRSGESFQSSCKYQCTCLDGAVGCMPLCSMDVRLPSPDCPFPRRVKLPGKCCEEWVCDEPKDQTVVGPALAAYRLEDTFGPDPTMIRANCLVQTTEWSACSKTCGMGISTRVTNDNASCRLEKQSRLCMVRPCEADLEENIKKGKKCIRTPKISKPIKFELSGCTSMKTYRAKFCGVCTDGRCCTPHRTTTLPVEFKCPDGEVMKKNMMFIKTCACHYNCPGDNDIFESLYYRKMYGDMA
Kind of assay: SPR, full length CTGF. (Surface plasmon resonance follows binding to a sensor surface in real time, without labels.)
With B1, the Kd (in general, the concentration at which binding is half-saturated) amounted to 0.27 nM.

Turning to B2, binding was put at a Kd of 0.29 nM.

With B3, the affinity, expressed as Kd, was 0.25 nM.

As for B4, the Kd worked out at 0.27 nM.

Molecule B5 displayed an equilibrium dissociation constant (Kd) of 0.2 nM.

For the molecule B6, the Kd amounted to 0.24 nM.

Turning to B7, the Kd turned out to be 0.25 nM.

B8 showed a Kd of 0.23 nM.

With B9, the affinity, expressed as Kd, was 0.28 nM.

Molecule B10 came in with a dissociation constant (Kd) of 0.29 nM. This Kd and that of the molecule before are within 1.5-fold of each other.

With B11, the dissociation constant Kd is 0.23 nM. The Kd values of the last two molecules are within 1.5-fold of each other.

The molecule B12 showed a Kd of 0.26 nM.

On to B13, for which binding was characterised by a dissociation constant (Kd) of 0.27 nM.

B14 returned a Kd of 0.17 nM.

The molecule B15 registered a Kd of 0.28 nM.

Take B16: the affinity, expressed as Kd, was 0.15 nM.

In the case of B17, the affinity, expressed as Kd, was 0.58 nM.

In the case of B18, the Kd was 0.18 nM.

In turn, B19 yielded a Kd of 0.16 nM.

Take B20: the affinity, expressed as Kd, was 0.36 nM.
